Results on ten molecules are retold here after paper PMC8911475, “Insight into the Phylogeny and Binding Ability of WRKY Transcription Factors”.

Data set [1] addresses T1, WRKY54 DBD (Arabidopsis thaliana, UniProt Q93WU8 133-224).
T1 sequence: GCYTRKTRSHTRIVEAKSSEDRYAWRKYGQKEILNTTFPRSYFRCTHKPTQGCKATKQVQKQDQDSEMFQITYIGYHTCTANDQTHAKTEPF
The data set can be described thus: EMSA; QCM: 30 mM HEPES pH 7.5, 0.5 M NaCl, 2 mM TCEP, 25 °C, biotin-dsDNA on avidin; fEMSA: 30 min incubation in the dark, native PAGE 4 °C 120 V 90 min, buffer not stated. The note with it: protein: recombinant, tags: N-term MBP + thrombin site, C-term 12xHis. In general terms: A gel shift assay detects complexes by their altered migration in electrophoresis.

The target of data set [2] is T1, WRKY54 DBD. As to the kind of experiment: QCM; text also gives 68 ± 11.73 pM for T13 (inconsistent); QCM: 30 mM HEPES pH 7.5, 0.5 M NaCl, 2 mM TCEP, 25 °C, biotin-dsDNA on avidin; fEMSA: 30 min incubation in the dark, native PAGE 4 °C 120 V 90 min, buffer not stated. The settings on record: protein: recombinant; tags: N-term MBP + thrombin site; C-term 12xHis; label: 5' fluorescein (fEMSA); 5' biotin (QCM).

Data set [3] has as its target T1, WRKY54 DBD. The data set can be described thus: QCM; QCM: 30 mM HEPES pH 7.5, 0.5 M NaCl, 2 mM TCEP, 25 °C, biotin-dsDNA on avidin; fEMSA: 30 min incubation in the dark, native PAGE 4 °C 120 V 90 min, buffer not stated. The settings on record: protein: recombinant; tags: N-term MBP + thrombin site; C-term 12xHis; label: 5' fluorescein (fEMSA); 5' biotin (QCM).
[4] abbreviates: label: 5' fluorescein (fEMSA), 5' biotin (QCM).

B1: T6 (dsDNA)
DNA 1: TTGACT
DNA 2: AGTCAA
On to B1, for which, in the data set with WRKY54 DBD [1] (setting [4]), the binding result was “no binding”.

B2: T13 (dsDNA)
DNA 1: ATTTGTTGACTAG
DNA 2: CTAGTCAACAAAT
As to B2, in the data set with WRKY54 DBD [2], the dissociation constant Kd – broadly, the concentration at which binding is half-saturated – is 0.192 ± 0.0225 nM.

B3: W4 (dsDNA)
DNA 1: ATTTGTTGACTAGG
DNA 2: CCTAGTCAACAAAT
Turning to B3, in the data set with WRKY54 DBD [3], the Kd is 0.163 ± 0.0101 nM.

B4: T10 (dsDNA)
DNA 1: GTTGACTAGG
DNA 2: CCTAGTCAAC
Turning to B4, the binding result with WRKY54 DBD [1] (setting [4]) was “no binding”.

B5: T12a (dsDNA)
DNA 1: TTGTTGACTAGG
DNA 2: CCTAGTCAACAA
In the case of B5, the dissociation constant Kd with WRKY54 DBD [3] is 0.047 ± 0.0062 nM.

B6: W2 (dsDNA)
DNA 1: GTTATTTGACCACC
DNA 2: GGTGGTCAAATAAC
B6: the binding result with WRKY54 DBD [1] (label: 5' fluorescein) was “no binding”.

B7: T12 (dsDNA)
DNA 1: ATTTGTTGACTA
DNA 2: TAGTCAACAAAT
Take B7: the Kd with WRKY54 DBD [3] is 2.19 ± 0.442 nM.

B8: W1 (dsDNA)
DNA 1: TGTCCTTGACTACA
DNA 2: TGTAGTCAAGGACA
Take B8: the binding result in the data set with WRKY54 DBD [1] (label: 5' fluorescein) was “no binding”.

B9: T8 (dsDNA)
DNA 1: GTTGACTA
DNA 2: TAGTCAAC
On to B9, for which the binding result in the data set with WRKY54 DBD [1] (setting [4]) is reported as “no binding”.

B10: W3 (dsDNA)
DNA 1: TTAACTTGACCCAA
DNA 2: TTGGGTCAAGTTAA
Take B10: the binding result with WRKY54 DBD [1] (label: 5' fluorescein) was “no binding”.
